Data from patent US20160130340A1 (ALDERBIO, published 2016).
Positions count from the first letter of the chain named.

Experiments:
[1] = target: T1, Human IL-6 (human, UniProt P05231 30-212); assay: Octet bio-layer interferometry; biotinylated IL-6 on streptavidin sensor, then antibody or buffer, then soluble IL-6R1, then gp130 in the presence of IL-6R1; blocked ligand: gp130
T1 construct: also called huIL-6; Interleukin-6
Description: (§1) To determine the antibody mechanism of action, mechanistic studies were performed using bio-layer interferometry with an Octet QK instrument (ForteBio; Menlo Park, Calif.). Studies were performed in two different configurations. […] Binding is monitored as an increase in signal.
The IL-6 bound to the sensor was then incubated either with the antibody in question or diluent solution alone.

[2] = target: T1, Human IL-6; assay: Octet bio-layer interferometry; antibody captured on anti-human IgG Fc sensor, then IL-6, then soluble IL-6R1, then gp130 in the presence of IL-6R1; ligand whose binding is slowed: gp130
Description: as §1
(§2) In the second orientation, the antibody was bound to a biosensor coated with an anti-human IgG1 Fc-specific reagent (ForteBio part number 18-5001). […] All studies were performed in a 200 μL final volume, at 30° C. and 1000 rpm. For these studies, all proteins were diluted using ForteBio's sample diluent buffer (part number 18-5028).

[3] = target: T2, Mouse IL-6 (mouse, UniProt P08505 25-211); assay: cell-based or functional assay
T2 sequence (looked up): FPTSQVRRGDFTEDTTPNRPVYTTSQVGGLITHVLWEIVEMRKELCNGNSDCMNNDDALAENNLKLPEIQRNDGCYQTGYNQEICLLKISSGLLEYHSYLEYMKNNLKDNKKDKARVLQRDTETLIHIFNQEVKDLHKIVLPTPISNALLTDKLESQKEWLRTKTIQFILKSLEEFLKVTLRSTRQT

[4] = target: T1, Human IL-6; assay: cell-based or functional assay
[5] = target: T3, Cynomolgus monkey IL-6 (cynomolgus monkey, UniProt P79341 28-212, limits assumed); assay: cell-based or functional assay
T3 sequence (looked up): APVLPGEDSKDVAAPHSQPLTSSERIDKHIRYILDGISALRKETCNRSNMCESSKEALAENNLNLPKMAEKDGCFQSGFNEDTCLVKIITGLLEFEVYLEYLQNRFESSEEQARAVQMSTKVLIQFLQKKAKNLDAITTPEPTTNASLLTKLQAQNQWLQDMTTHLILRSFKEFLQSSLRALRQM

[6] = target: T4, Rat IL-6 (rat, UniProt P20607 25-211); assay: cell-based or functional assay
T4 sequence (looked up): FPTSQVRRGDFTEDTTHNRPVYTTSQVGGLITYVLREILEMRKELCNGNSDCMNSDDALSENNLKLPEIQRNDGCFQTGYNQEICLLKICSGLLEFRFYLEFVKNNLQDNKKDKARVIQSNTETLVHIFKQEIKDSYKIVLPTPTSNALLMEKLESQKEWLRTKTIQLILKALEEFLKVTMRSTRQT

[7] = target: T2, Mouse IL-6; assay: surface plasmon resonance, 25 C, averaged constants
[8] = target: T1, Human IL-6; assay: as above
[9] = target: T3, Cynomolgus monkey IL-6; assay: as above
[10] = target: T4, Rat IL-6; assay: as above
[11] = target: T1, Human IL-6; assay: Octet bio-layer interferometry; antibody captured on anti-human IgG Fc sensor, then IL-6, then soluble IL-6R1, then gp130 in the presence of IL-6R1; blocked ligands: IL-6R1 and gp130
Description: as §1, §2

B1: Ab4 (antibody, V domains shown)
VH: QEQLKESGGGLVTPGGTLTLTCTASGFSLNAYYMNWVRQAPGKGLEWIGFITLNNNVAYANWAKGRFTFSKTSTTVDLKMTSPTPEDTATYFCARSRGWGAMGRLDLWGHGTLVTVSS
VL: DPVLTQTPSPVSAPVGGTVSISCQASQSVYENNYLSWFQQKPGQPPKLLIYGASTLDSGVPSRFKGSGSGTQFTLTITDVQCDDAATYYCAGVYDDDSDDAFGGGTEVVVKR
notes: Captured on an anti-human IgG1 Fc sensor
B1: binds [1].

B2: Ab3 (antibody, V domains shown)
VH: QSLEESGGRLVTPGTPLTLTCTASGFSLSVYYMNWVRQAPGKGLEWIGFITMSDNINYASWAKGRFTISKTSTTVDLKMTSPTTEDTATYFCARSRGWGTMGRLDLWGPGTLVTVSS
VL: B1 VL with D1A, P2A, P14A, E31D, D57A, K65V, D100N
notes: as for B1
B2: binds [1].

B3: Ab2 (antibody, V domains shown)
VH: QEQLKESGGRLVTPGTPLTLTCTASGFSLNDHAMGWVRQAPGKGLEYIGFINSGGSARYASWAEGRFTISRTSTTVDLKMTSLTTEDTATYFCVRGGAVWSIHSFDPWGPGTLVTVSS
VL: AYDMTQTPASVEVAVGGTVTINCQASETIYSWLSWYQQKPGQPPKLLIYQASDLASGVPSRFSGSGAGTEYTLTISGVQCDDAATYYCQQGYSGSNVDNVFGGGTEVVVKR
notes: The entry may carry a leader
B3: binds [2].

B4: Ab1 (antibody, human IgG1, kappa, N297A, V domains shown)
VH: EVQLVESGGGLVQPGGSLRLSCAASGFSLSNYYVTWVRQAPGKGLEWVGIIYGSDETAYATSAIGRFTISRDNSKNTLYLQMNSLRAEDTAVYYCARDDSSDWDAKFNLWGQGTLVTVSS
VL: AIQMTQSPSSLSASVGDRVTITCQASQSINNELSWYQQKPGKAPKLLIYRASTLASGVPSRFSGSGSGTDFTLTISSLQPDDFATYYCQQGYSLRNIDNAFGGGTKVEIKR
notes: Humanized from a rabbit antibody, IgG1 kappa, aglycosylated, produced in Pichia pastoris; also called clazakizumab; ALD518
For B4, the “IC50 (pM), T1165 cell proliferation stimulated by the species' IL-6” value (shortened to “IC50 (pM)”) [3] was 1840 pM, the “IC50 (pM)” value [4] was 13 pM and the “IC50 (pM)” value [5] was 12 pM. For the same binder, the “IC50 (pM)” value [6] was 2060 pM, the Kd [7] was 400 pM and the koff [7] was 0.0004 s⁻¹. For the same binder, the kon [7] was 1.1e+06 M⁻¹ s⁻¹, the Kd [8] was 4 pM and the koff [8] was 5e-07 s⁻¹. For the same binder, the kon [8] was 160000 M⁻¹ s⁻¹, the Kd [9] was 31 pM and the koff [9] was 3e-06 s⁻¹. It also gave a kon [9] of 96000 M⁻¹ s⁻¹, a Kd [10] of 1400 pM and a koff [10] of 0.0022 s⁻¹. For the same binder, the kon [10] was 1.6e+06 M⁻¹ s⁻¹.

B5: Ab6 (antibody, V domains shown)
VH: QSVEESGGRLVTPGTPLTLTCTVSGIDLSDYAMSWVRQAPGKGLEWIGIIYAGSGSTWYASWAKGRFTISKTSTTVDLKITSPTTEDTATYFCARDGYDDYGDFDRLDLWGPGTLVTVSS
VL: AAVLTQTPSPVSVPVGGTVTIKCQSSQSVYNNFLSWYQQKPGQPPKLLIYQASKLASGVPDRFSGSGSGTQFTLTISGVQCDDAATYYCLGGYDDDADNAFGGGTEVVVKR
notes: as for B1
B5: binds [11].
